From the DeepSol protein solubility set

Assay: soluble on expression in E. coli; label from the status in PepcDB or PDB records

Soluble on expression in E. coli, not soluble:
MGSDKIHHHHHHMNVYEKGNGVILEGVTDFDPVHIFECGQCFRWHKQEDGSYTGVAKGRILNVKKENDKIYLNNTNLKEFNSIWYNYFDLGTDYTEIKNKLKNMDEYLNKATEFGWGIRILRQDGWEMLISFIISSNNRIPMIQRAIENLSRKFGKYIGEYEGNEYYAFPTPEELNKASQEEIRACQTGFRDKYIKSTTQAVIENNDEVSEYTNLSTEDCRKELLKFNGVGPKVCDCIALFGMQKYDSFPVDVWVKRVMQEFYIDEDMSLPKMRTYGIDKFKEMSGFAQQYLFYYARELGIGK
MGSDKIHHHHHHMNYEGKTKIVKVTGDYALLEFKDDITAGDGLKHDVLTGKGSICAETTAILMKYLSEKGIKTHLVEYIPPRTLKVIPLKMFPLEVVVRLKKAGSFVRRYGGAEGEDLPVPLVEFFIKDDERHDPMVCVDHLEILGIATKKQAEKMKEAAVKITLALKEFFERANFELWDIKYEFGLDKDGNVVLGDEISPDTFRLRKKGEIFDKDVYRRDLGDPLKKYREVLELCRSLNSQ
MGSDKIHHHHHHMNYKYYTIVILGLLAFSACEKDDIDIPATDNEVNQWIEQTMRENYLWYSELPDKSSLDFSLDPESFFKGLLSDKDGKELSDGHHYFSQLEKATVTKSIYDANNSYGFDFATSNLKDGGSTYKIAIVLYVLKDSPAEEAGLKRGDWILGVNGSLGSIQDYDVLRSGGSVSLQLGKETGNTKGFVSTRRVTLNASRTVEDSPFLKDSVYTYGNKRIGYLMYNHFASGPDEYDYSDTSYNLYLQQLFEKFKSRNVNEFVLDLRYNGGGLVNCAQLLASLLVRENVLGEPLCIMEYNDKNSNKNETLPLLKTTEVMAGNLNLQRLFVLTGSTTASASELIINSLRSYLDVRVIGKQTFGKTVGMTIYNESKKYGWILSPVTFHIYNKDREADYEDGFHPDVAIDEFKSDLAEFGDLKDPLLGQAIYEITGQSPLLRSATPRGNREIQYNPPLSYKDNLLLIPKD
MGSDKIHHHHHHMNYLEAEDLTTGYGRQVISEALNCSFEAGTITSIIGPNGCGKSTLLKTLARILPAEKGKVFIKNQELQHFSSKEVAQELAILSQTPENTIDLSVFDLVSFGRYPYQSGWKSVTTEDQEYIQWALELTGLTELARESVAILSGGQRQRVWIAMALVQDTDILILDEPTTYLDPAHQLEILNVLKRINQEHQKTIVMTIHDINLASRFSDRVIAMKEGKIINEGTPQEVITVTGLADVFAIQAEISYHSQTQRPLVLSYELMEMELDG
MGSDKIHHHHHHMPDLTTAPDAEILMAQPRGFCAGVDRAIEIVERALTRFGAPIYVRHEIVHNAYVVADLRRKGAVFVRELDEVPAGATVIFSAHGVSKDVRAEAASRGLNVFDATCPLVTKVHVEVGKMRAEGCEIVMIGHRGHPEVEGTMGQAEGGMLLVESVADVAGLVVADPARLAYVTQTTLSVDETLEIVAALKARFPLIREPKKQDICYATQNRQDAVKFMAPQVDVVIVVGSPNSSNSNRLRELAARLGVPAYMVDAPDQVHPEWVAGKRRIGLTAGASAPEELAQSIVARLRELGAGHVRALAGIEENMAFPLPRGLQAAATVGVTA
MGSDKIHHHHHHMPEQQKSVTGTSLFERYTLSQAYDEMFTAEGDIRPAYSELARLLCSISPAELQQRQRYADLTFLNQGITFTVYGNDAGVERVFPYDLLPRIIAADEWQHIERGLHQRIVALNLFLHDVYHNENILRDGIIPRHLVYSCRHYRREMRGLTVPRGVYTAIVGTDLVRLPDGQFVVLEDNLRVPSGVSYMLTNRAVMKRALPRLFGAYGVRPIDHYGQALLATLRALAPAHRPEPTIVLLTPGVFNSAYFEHTFLARQMGIELVEGRDLLVHNNIVYMRTTKGLQRVDVIYRRIDDDFLDPMIFRPDSVLGVPGLFNAYRAGTVVLANAIGTGVADDKAIYAYVPDIIRYYLGEEPILPNVTTYLCDRPDECAYVLEHLGDLVVKAVGESGGYDMLIGPHSTREEQAQFAERIRAQPRNYIAQPTLQLSQAPCFIDGVIEPRHVDLRPFVLFDGERTTIVPGGLTRVALRRGSLVVNSSQGGGSKDTWVLY
MGSDKIHHHHHHMPGASPWRALVGGVKGQPQGTGMDRIGPAERPILSEGAKRVTADLLQTINTIYDCVGDELDHHRCLAAIGEAVDGTSLSVGEVFPFFGRIRLIANYCVPEDAARIMVDSFSTIESNSFMKNLPRFPEGVPFMRRTFVSDEEHYQSDIYKLASEPWGLHSEGATIFSKSIVSAKFCGFFRLPGKAELDIHDLSKLAILNGHYMKAMKFQDRISGLETALLRANNVLDLLDFGLLLFGDQKSPLYVNQAAHRILEKSDVMSLGRDGLIFSSSKSQNHYEKIFSSVVGSRSSPTKGTGGLVQVSPASFRRPYNVVVQPISSHQTGVADATIGVLIFDPNAKRTTAIELFSTSYGLTKKETQLALHLAEGLSVDEYAKSHNVSINTVRTHVRSIYEKTNTTRQPELVSLILRLTAGLNWT
MGSDKIHHHHHHMPIITSYITQDDGTTTVVISGVELGNKETLLLDNGFDVEVDVSVIDPFQITGKQRRKIFALVKDIEEHTGQPMDYMRHMFIEFVRTYYGYDERISLSNCTRTQASQIIEATLDWTFYNDIPLSYKTSNLLKQDKSFLYWSTVNRNCVICGKPHADLAHYEAVGRGMNRNKMNHYDKHVLALCREHHNEQHAIGVKSFDDKYHLHDSWIKVDERLNKMLKGEKKE
MGSDKIHHHHHHMPIKVNMFSSASKVKGQGVGSAYEELIRLLKTHFPKQIDVSINKFTKADISHYHTIDPNFYLSTFSKKRGIKVGYVHFLPETIEGSLNIPQPFRSIFYKYIISFYKRMDHIVVVNPTFIDKLVAYGISRDIITYIPNFVRKNEFYRFTEANRDAVRERLEVNNRFTVLGIGQVQERKGVKDFIKLAENNPDKYFIWAGGFSFGRLTDGYADLKQVVDNPPRNLKFTGIVDRNALVEYYNAADLFLLPSYNELFPMSVLEAFSCGVPVMLRDLELYHSIIKGYYIPTQDYEDMNTQLKLVSEDKERLNKFKQLSDEASEEYSEDHLADIWLDFYSSLTK
MGSDKIHHHHHHMPKLGFVQVEVSTRCQLSCLMCPKSCFSDEWIAKDMNMETFRLIPFKKFHYAHLQGWGEPLLNPNIGEMVDIAAKSCKVGLTTNGLLIDHHIDSILKLDLLAVSVASGDARQHERVRGCSLEKLAGNIKLVSESRGKRPKIVIATMMLKSTIESLPKLIDFAAECGADEVIANNLDYIPSKELVGEEVFGLTADKDVEKAVEQAGKRAEELGIGFIAKPRLMEEALVCAENPVENCVVAVDGRIAPCAYLNLPTASETIPRWFRGRTVEVPKVYFSSFKEWLKSDFRDTFKRRLQVLHQSLPTELPPLPQPCRTCYKAYSV
MGSDKIHHHHHHMPLSIITNTFAGNPLDRDSERRGDEAFLAEKLADPESLAVALWNGKPLVEDILGEDGKPTGVQIAYLRADMAQDLAGGSEKLLYMGLWKDIAVFAVDIEGAADPAEGPLQGLGRFEELRGAAASMPPADAGILATAKSMFEWRRRHRWCSACGQKTEVSDGGWKRVCPSCEAEHFPRTDPVAIMLAIHDGKCLLGRQAMWPQGMFSALAGFIEPGETIEEACARELQEEAGLKATAVRYHSSQPWPWPSSLMMGLIAEVDSDEAAPDQTELEEVRWFTREEALQLIRGELDGLFAPPPLAIAHQLIKAWAEEA
MGSDKIHHHHHHMPPLSIPADQYLRLSDKSQVRCYRSHFSDRMEMLAPPKNVAAYLDHHQGWFQRCAAPMEVKALDDQSYLLTLGRFGNFGFEVEPCIGLKLLPQQQGLYQIINVDLTHQDLPLCDHYDVDFKAGLKLEPSETEASNTVQQTTIVNWDLDLSVWIQLPKVITLLPDGLVQTSGDQLLRQVVRQISRRLTWKVQEDFHATHGLTCPPRRHAAF
MGSDKIHHHHHHMPPPVRVNWPRMRTTRRQTVTTWVGNVPVGSSHPIVVQSMTNTDTANAEATALQVAQLARAGSEIVRVTVNTREAAAALPEIVARLHDLGLDVPLVGDFHYNGHLLLREYPETARLLAKYRINPGNVGAGQHHDANFATMIEVAKTYGKPVRIGVNWGSLDQQVLARLMDENARRGSPKSGTDVMIDAMVTSALESAAYAEGLGLPHDRIIISVKVSSAPELWQVYRQLAPLCDYPLHLGLTEAGMGMKGMVASSVALAPLLSEGIGDTIRVSLTPEPGAPRKLEVEVAQQILQSLGLRQFLPQVTSCPGCGRTTSTFFQELARKIQDYIRDAMPEWKAKYPGVEDMQVAVMGCIVNGPGESKHANIGISLPGTGEDPRAPVYQDGKLLTTLKGPRIAEDFQELLEKYVEERYGHKSAHTTVQE
MGSDKIHHHHHHMPQEPESGADLPSDRTAVFPTPEGPPLPKQVTLQAAKWLVMLQAPNTTQATRAKWQQWRDVHPDHERAWQHIEASATQMRAMHSPLAHGTLIRDDTEKRHARRRAIKLLGVIAFTGTSTWLLRDNPVWREWHADHRTATSERRTIVLADGTRIMLNTASIIDVHFDNAIRLVTLIRGEILVTTAPDSASGTGQPFIVETDQGRLRALGTRFAVRQRENDSHVSLFEGMVEIRPADASDQARVLQAGEQISFTRNAIETPQTIDTHAASWVTGMLVVQEMPLTDFIDELARYRPGYLSCDPELSHLKVSGIYPIEDTERVLDMLLHVHPIEIYSLTRYWVAIRARGDR
MGSDKIHHHHHHMPQYTVYLAPAGYEQDLIDELGPRVIDVRGRLVRASGGPRHAAWAQNIWLDPVEMRIGSIGDAATRLKGIQRNWFLHAVDHHRRAALIAGKLPHVSARPHVFGTPAPTAPLGSWTLWEHDLVIASARCSSPFPDGEVHFVENRIDPPTRAYLKLWETFTRLGVQPAPGELCLDMGSCPGGWTWVLAGLGARVFSVDKADIAPHIAAMPNVNFCTGSAFGLDPQHAGAVDWFFSDVICYPDRLLATVQRWLERGQCRNFVCTLKFQATTDHATAAAFAAIPGSQLFHLAHNKHELTWVLLRDKA
MGSDKIHHHHHHMPRPRRTQISLEDTPFYHCCSRVVRRAFLCGDDSYSGKNYDHRRAWVESLLFELEAVFAIDVVAFAVMSNHLHVVLRIDVETANRWSDREVLEQWHKLFKGDELTQKFAKGGLVEADEVNRLRHSIAIYRSRLCDISWFMRCLNEPIARQANQEDNCTGRFWEGRFKSQALLDEAAVLACMTYVDLNPIRAQMADTLEQSAHTSIQLRIQAALKDEQPKNLLPFIGNERDNQPIGITFSLIDYLQLVDDTGRIIRNDKLGAITENSAKLLTRLNIHHDNWLKLTTEFGKLFHGPVGTLQELTDYCEHLEKRRRHFAKCCQHLNAG
MGSDKIHHHHHHMPRQMRPDIADIRTGADLRQWYWRKDELVAHARTLGLKRSGAKFTILDRIAHFLDTGARDLPEAPAPKPTSDFDWHSAKLTPDTILTDSYKNTQNVRRFFKAQLGPRFAFSIPLMAWLKENSGKTLSDACAVWRDLQAERRRPGWQSDIKGHNQFNQYTRDFLAAHPDLGMDDVRRVWARKIQQPSPDGRHIYEPSDLDL
MGSDKIHHHHHHMPRSARIDIPNLLQHVIVRGIERRDIFLSDDDRWDFRNRLQKLLLEMDVDCLAWSLMSNHFHLLLRPTRTPLAPFMRRLLTGYAVSFNLRHNRSGHLFQNRYKSIVCDEDSYLLELVRYIHLNPLRAGIVADLGALDTFPWSGHAMLMGKIVLEGQGINEVLRYFGPGVSASRRTYREFMADGVLQGERPDLVGKRSGASGGGCPASDRRILGDENFVEQLKTEECLHQQLRRPMSIESIVATIADQYGVAPKAIASKSRLPRTLDARAVVCYTAVEEGHTGAEVGRVLGMTRSGVAIARRRGEEVLARIESTAEFQHDTRLDSTN
